The source of these data is the domain aggregation screens of Martell et al. (2025).

This data set can be described thus: soluble fraction after stress (log2 fold change); higher = more stays soluble; pooled small domains, quantitative proteomics. Conditions: stress: pH 4. In a few lines: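 Pooled custom libraries of small protein domains were subjected to pH 4 and measured by high-throughput quantitative proteomics. The log2 fold change in soluble amount per domain is reported, higher values meaning more remained soluble. This is used as a measure of aggregation propensity.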
Take “HMATVHPIRIQGGMTTQQGGKTVWLWVSDEGRLMTEDEIAGESGGTVSSRMVRGVRVLTGTGVIYG”: the “soluble fraction (log2)” value was -0.57.
In the case of “HMATVIDVATTLGRPITDPDEQRQVLNWIGKTERIISARLGDLAALDRQILADVISEVVARRARN” it was -0.726; in that of “HMATVNIGNLTFTHKGDYASGTTYAKNDVVYYSTNGNAYIAKQATQGNAPTSTAHWDVFAAGSGG”, 0.145.
As for “HMAVDAASSTIGKNVEVSVANEKGDYENFNGKVKSASIKDGVVYLELELKDTGEIKEVPYSSLTKIT”, the “soluble fraction (log2)” value amounted to 0.355.
Take “HMAVDPSVLTRRERQALAWIARGLSNKEVARGLNLAESTVKVHVQSILRKLNLTSRVQAAVYAIEHGIDK”: the “soluble fraction (log2)” value was -0.0198.
For the sequence “HMAVFRVGDKVKSMEGMIGEVRGINGRLIQVATPYGLRDYYPHQITKVENPLAAAPAPLNEEA”, the “soluble fraction (log2)” value turned out to be 0.0157.
For “HMAVGVFQKEDGYWGYRFSIIVDGKTIARRKFTDENGSKLRTKSEAVKARAAAMVAARMERVS”, the “soluble fraction (log2)” value was determined as 0.24.
With “HMAVIILDEPTLGLDPAVRISLWQAIQSARDSTMSAFLITTHYIKEVADYLSAVKILDHGREVASGNPSAL”, the “soluble fraction (log2)” value was -0.905.
Take “HMAVKLELYRVFKEVAETGNISAAAKNLYISQSAVSQSIKQLETALQARLFARSPRGVTLTGEGQMLYQYV”: the “soluble fraction (log2)” value was -0.652.
As to “HMAVKNAQIDVQQFFYSKSGEVDFGRKIKAIQSHFTPERLQSFTAAVPPSQWVSQLQVMWDSL”, the “soluble fraction (log2)” value was -1.68.
In the case of “HMAVLGIQPVFHRSTGQTVYKSSVNTAKGRVYLGLFPTLTEALEIKLKYMQEHGHTKGITNLTNKLKEL” it was 0.22; in that of “HMAVPFTIDVSQNGRYFIEEDNQVVEVSIGFLEDRFLRIIKSNPDIEVIIRGDAKASYESIAELLAVLQ”, -0.782; in that of “HMAVQPMDQVKAWLAEDNPADIKLLVPVLQKLDLLDYEQVRGEVADRAGVRKSLLDEAVKGN”, -0.119.
With “HMAVRTELLALPAGWHGDASRLSTALAALQGVREAVVIASEGVAYLKVHGHDWDRDGARELLQN”, the “soluble fraction (log2)” value is -0.199.
For “HMAVSGRGSIIGGVATVLDDFADSGKVWLEGEAWQARSSVPLKQDQEVVVRAMDGLVLVVEPVA”, the “soluble fraction (log2)” value was -0.869.
Regarding “HMAVSNWQKLVSSIQTQLKILALYHGPEDGIYGPNTRSAIMLYEENIGLPVTGEPSRELLAHMLDQTD”, the “soluble fraction (log2)” value was -0.194.
With “HMAVTNLTAKQISDTRWRVTWDSTLASPTYYVYRDGLLMMQTRQELYEFDAARGEQVQIDVLDDMAAAPAE”, the “soluble fraction (log2)” value was -0.459.
For the sequence “HMAWAVRAGEGVLIRAGQPGFSATTRGTALSNGAIGEGVRVRNLGSGKEIQAWVVDKGEVETR”, the “soluble fraction (log2)” value was 0.136.
With “HMAWIAVATKEDYSEYEWKELSPTTDWSTQTFDLGDLAGKTIYAVKMFFDHDTDVKDYKFNLGQLSITSN”, the “soluble fraction (log2)” value was -1.22.
On to “HMAYRLDVRNQTKGTYLVIQKKYWDKEKKQSRTKHHMSLGYVHDLQKLYSDPITHYKEVINQMNAEEKG”, for which the “soluble fraction (log2)” value is 0.0253.
For “HMAYSEEDRRRVREELLTTALKLMSTQGIQHTTVEQVYRSVGISRSFFYAFFPTKEDLIVEAL”, the “soluble fraction (log2)” value was -0.0412.
“HMDAAANTLRILKALSESPMSADRLAELLMEEGSGRNPRTIRRYIRALREAGFGVEHREGRYVL”: the “soluble fraction (log2)” value is -0.483.
In the case of “HMDAAEVEATARAMLRRSALNLLAQREQTAFELKQKLSRRFPEQAALLDEVIERLQEQGLQDDTR”, the “soluble fraction (log2)” value was -0.527.
As for “HMDAEEISILLEKAVLQLPEKQKMIFQLKYFEDLSYKDIQIITGGSIGGLKANYHHAVTKIEKLLS”, the “soluble fraction (log2)” value was -0.892.
For the sequence “HMDAEETLGARLRRLRQARGLSLAGLAQAAGLSKPSIWAWENGTTAPRRTSLLALARALDVPEQQLTGV”, the “soluble fraction (log2)” value is -0.173.
“HMDAEKHIVTPEAGLRLDRALTDALPNLSRSRVKQLINEGLVTTENKTITAPSYRVKYGDSFEISIPPPT”: the “soluble fraction (log2)” value was -0.134.
Turning to “HMDAIIVPSVLKMKPFEAEEKLSALGLRMKINDTVYIDNMKPGVIVEQSPTAEEDVKTDRVIYVIVNA”, the “soluble fraction (log2)” value is -0.139.
As to “HMDAKQLQSLKNNNEQLAGFIVRLTNFYEGLSPDIDAELSKLRSHLSGKVDYTLATVSINKINQLFMLEP”, the “soluble fraction (log2)” value is -1.75.
As for “HMDALIWYVSRGQQKFGPFNYFGVLKALQDKSVFEFDYVWKEGTENWVRLAEHELFSQEKVRELLA”, the “soluble fraction (log2)” value is -0.679.
On to “HMDAMLGEALRLIRVYHDLKQKQAAERLEVSTSYLSEIERGLKTPTLDIIQRYATVFDMPVSSIMFFSENL”, for which the “soluble fraction (log2)” value is -1.19.
Turning to “HMDAMLSEQLREKRGELLIEVDAIAGNALRWATLSAEQQDAWAVYRQALLDVPQQAGFPNDVVWPINPN”, the “soluble fraction (log2)” value was -0.982.
In the case of “HMDAPKPDIGMSTDQIRSSLGQPGSQTRLETGGGRIYELWIYLYPDGKELQIYFDNAKVVKMEALS” it was -0.419; in that of “HMDAPLIIAETRVDVPDATVSDAVMMLDLRNTNALLFKNSGSGVLNMVYRRGDGTIGWGEPQ”, -0.543; in that of “HMDASKVKIEDLGLSTRTENALVAASIRTAGGLARKSEMDLLSTDGLGEKGITEIKKALSDLGLELK”, 0.246.
Take “HMDAVSTMIENLRVKTGKSLADWVGLAKGSGADKHGAMVGWLKSEHGLTHGYANLIAHETFRSAA”: the “soluble fraction (log2)” value was found to be 0.0144.
On to “HMDAVTPVLSRIRDARFKRMVLPGDEIEISVTLIDTIGKFFNLSGQIRNKDKISLTVNFALALV”, for which the “soluble fraction (log2)” value was 0.0905.
In the case of “HMDDADPYEILGVERDAEDAEIKRAYHDLIRENHPDRLMAEGLPQEMIDVANEKVAFINDAYDRIEKLRGM” it was -0.89.
As to “HMDDENKIEVMINEEKVQLTGKDKYVFVDIFNYIDMDLTRIHGNLVLKLNGENASHNSLLKSGDKIEARWE”, the “soluble fraction (log2)” value was -1.92.
“HMDDERDRLVQQAMEGLSPALREILLLAYFQRMPYNQIAESLRIPLGTVKSRLHAAVAAFAKRWQELNRS”: the “soluble fraction (log2)” value is -0.475.
“HMDDFNLSPREKDVLGHLVKGNSYKMIADELQIGYDTVHSHIKKIYKKLHVNSMSEAVAKALKNKL”: the “soluble fraction (log2)” value is -0.26.
With “HMDDGARQLVDQLNRLIANPAVSARIIHGYLILEGRVESEWEKTRTLLLAQVAGLPVIDLITVS” the figure was -2.12.
In the case of “HMDDGLTRLTPRENEVLELMAQGRSNTAIAERLVLSYGAVEKNVSSIFTKLDLPLDAGDHRRVLAVLRRLN” it was -0.677.
With “HMDDGNHTEYIVLEKAKFYDEAGEYEEGRDLVLSFDKYQDNWKLVYTLGVFNKKLNNLEEARKYYKQALE” the figure was -0.846.
“HMDDHKQHLIDFYHSRKRMPTYTEMMALFGYKSKNAVARLVEKMIDAGIVTKDKLGKLLPTTLFDSVPL”: the “soluble fraction (log2)” value is -0.0996.
“HMDDHLRLSDNERISAMSALATHFTEGRLDTSEFDERTLAASQAKSRGDLRPLFDDLPGQLPAALSP”: the “soluble fraction (log2)” value was -0.125.
On to “HMDDKLKKLEEVFEMQEGTLTPDMRLDELEEWDSMTRLSLIVMMEDDYGKKVKRSEVMNYTTVQDIVDSME”, for which the “soluble fraction (log2)” value was -0.946.
As for “HMDDLSPEENKVIGAQVREELARRRLSRQHLADKAKISLSTLEKALTGTRPFTLASVVRIEEALQLQLRK”, the “soluble fraction (log2)” value was determined as 0.344.
“HMDDPEISQEQRQQLFRTAKEHFGASGNDVLKEILADHGRDSTVKMPVSVFAEIMGDLLKRALD”: the “soluble fraction (log2)” value is -0.121.
For “HMDDPQAELLARAVRRVALAAAERTRRNEYGGVYLGLFRQFGISSYRRTPPARLHEALEWLERWRGDLM”, the “soluble fraction (log2)” value was -0.378.
For “HMDDTVILPIQINGKRRAEISVPKAMPASEVEKLALANEDVLRFLAGQPIKKLIVVPGRIINVV”, the “soluble fraction (log2)” value is at least 0.43.
On to “HMDDVGERIRKIREEKNLSLDEISKMTGFDVEFLAKIENKERQPQLGTVIKLSKALDSAFGRL”, for which the “soluble fraction (log2)” value is -0.0445.
“HMDDVGYLRKRLQQALAQLSDDLRNTYTLFQIGKQSIKQIAAETGASESLVKVRIHRAKQKLQELLADLQ”: the “soluble fraction (log2)” value is -0.054.
With “HMDEDLQEALRKLNPIQANERKLLLKMLEQHRWNVSSVAKAFDVSRNTLYRRLHKLHIPLSNPSE” the figure was 0.172; with “HMDEEAIELTQEVMKLPPKQREVILLYYYHGLTGKEIAKALGISGAAVSKRLKQAKNQLHFALK”, 0.0819; with “HMDEEVLVVQEGGERLDVFVAANAEGITRSFVQNLIKKGDVTVDGAPRKANYRLRSGQVVRFSLPEP”, 0.293.
Consider “HMDEFEEGVITYFNSEKGFGFIRESKTKQSVFVHSKQLSSPVQLNDKVKFIVNKGLKGLEATEVSVI”, for which the “soluble fraction (log2)” value is at least 0.43.
In the case of “HMDEFQLTPREQEILGLLVKGYTYKRIASELNLSYATVNRHVSNVYVKLRVHSVNEAVALAVRKGL” it was -0.543.
On to “HMDEKLAHKLVSDFRQAAASLERFPFRNPVLRSEVFTVEKYRKLVFDKYHILLYQVKDQVVYVEYVIDGRQ”, for which the “soluble fraction (log2)” value is at least 0.43.
As for “HMDEKVTIPSVSGLLLSEAKTKLVDAGLTVETVYDDESKEAKDTVLSQSPLQYGKVDKGTVVTLTVSSGKG”, the “soluble fraction (log2)” value is 0.417.
On to “HMDELPKDILRSFGLPDKPWAMELLRNLRRDGFALDGETARAYAEMAAMKPPRTDARQWMTAADVAYRRG”, for which the “soluble fraction (log2)” value is 0.105.
In the case of “HMDEMPVEFVKISIKAGHPWENRKIKDLASLPDLLLVLILRGEERIIPNGNTVVLAGDKIVLSALSPE”, the “soluble fraction (log2)” value is -1.94.
Regarding “HMDENILKTRIEDLDLSVRTIKALTGASIRTVSGLARKKESDLLEISGLGDKGIQEIKRALGSLGITL”, the “soluble fraction (log2)” value was -0.0429.
With “HMDENTEQESQTVVVPDVTGKSLSEAASILREAGLDYLAEQTGTVVTKQMPLPDAEVLINTTVLLYTDSE” the figure was -0.456; with “HMDEPSITYGKVKVQTSLNVRQGPGTQYARIGSLGPNVRIQILGQEGQWYKIKYGNLQGYVHSDYVELEK”, -0.376.
In the case of “HMDEQKNREIALIENIQREDLNPYEKALGIRNLMDKYGLTQEEVSKRIGKSRSAVSNTVRILNLAPDVL” it was -0.0309.
In the case of “HMDEQLAWLYRKINAFSEIDKALILLYLEDKKYDEIAETLGISSVNARVKMNRIKKRLKEMINDR” it was -1.02.
For the sequence “HMDEQVETLKNLISELPKEQLEVLVMRHYEDLSFKEISEKTGVSINTALGRMRYALINIRKLMKENN”, the “soluble fraction (log2)” value was -0.488.
As to “HMDESLIEEAKAMILQMKIEGSVRVRSNGLLEFRNPLFGSVYGRSVEELQEKLNKKVREQKSRI”, the “soluble fraction (log2)” value amounted to 0.194.
With “HMDEVPMPPEYQYLRVGSRVHHATFGWGKVTRLSQPWPQTRAEVFFENIGPKKLVLAHAHLTMD” the figure was 0.113.
